Experimental data as given in patent US20230265215A1 (OMEROS, published 2023).
Several values for one entry are separate records, joined by “and”; a condition that tells them apart may be missing. Equal values may be shown once.

How the values were obtained:
[1] = target: T1, human MASP-2 (endogenous, in normal human serum) (human, UniProt O00187 16-686); test: cell-based or functional assay
[2] = target: T1, human MASP-2 (endogenous, in normal …); test: cell-based or functional assay; remark: listed apart in the source
[3] = target: T2, cynomolgus monkey MASP-2 (endogenous, in cynomolgus monkey serum) (cynomolgus monkey, UniProt O00187 16-686 (human entry), limits assumed); test: cell-based or functional assay
T2 sequence (O00187 other isoform, or with tags, fused parts or gaps limits assumed): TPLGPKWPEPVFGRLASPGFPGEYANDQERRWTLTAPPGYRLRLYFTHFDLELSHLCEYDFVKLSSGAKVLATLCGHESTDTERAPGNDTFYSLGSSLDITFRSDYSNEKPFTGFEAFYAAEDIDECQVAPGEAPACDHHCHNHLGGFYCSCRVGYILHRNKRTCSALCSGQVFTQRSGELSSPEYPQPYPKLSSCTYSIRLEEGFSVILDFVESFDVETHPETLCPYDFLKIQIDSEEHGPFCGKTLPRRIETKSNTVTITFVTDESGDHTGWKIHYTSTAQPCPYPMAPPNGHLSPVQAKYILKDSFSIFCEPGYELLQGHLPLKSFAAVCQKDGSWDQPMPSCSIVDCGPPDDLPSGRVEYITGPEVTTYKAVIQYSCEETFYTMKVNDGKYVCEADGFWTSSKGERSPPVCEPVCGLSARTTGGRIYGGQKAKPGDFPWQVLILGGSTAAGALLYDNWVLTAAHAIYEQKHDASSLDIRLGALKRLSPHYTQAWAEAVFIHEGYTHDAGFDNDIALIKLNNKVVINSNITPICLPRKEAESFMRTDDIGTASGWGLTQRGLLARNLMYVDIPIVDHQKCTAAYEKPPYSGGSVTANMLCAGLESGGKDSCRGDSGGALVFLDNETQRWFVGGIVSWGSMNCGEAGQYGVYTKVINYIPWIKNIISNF

[4] = target: T3, mouse MASP-2 (endogenous, in mouse serum or hirudin plasma) (mouse, UniProt Q91WP0 20-685); test: cell-based or functional assay
T3 sequence (Q91WP0 20-685 limits assumed): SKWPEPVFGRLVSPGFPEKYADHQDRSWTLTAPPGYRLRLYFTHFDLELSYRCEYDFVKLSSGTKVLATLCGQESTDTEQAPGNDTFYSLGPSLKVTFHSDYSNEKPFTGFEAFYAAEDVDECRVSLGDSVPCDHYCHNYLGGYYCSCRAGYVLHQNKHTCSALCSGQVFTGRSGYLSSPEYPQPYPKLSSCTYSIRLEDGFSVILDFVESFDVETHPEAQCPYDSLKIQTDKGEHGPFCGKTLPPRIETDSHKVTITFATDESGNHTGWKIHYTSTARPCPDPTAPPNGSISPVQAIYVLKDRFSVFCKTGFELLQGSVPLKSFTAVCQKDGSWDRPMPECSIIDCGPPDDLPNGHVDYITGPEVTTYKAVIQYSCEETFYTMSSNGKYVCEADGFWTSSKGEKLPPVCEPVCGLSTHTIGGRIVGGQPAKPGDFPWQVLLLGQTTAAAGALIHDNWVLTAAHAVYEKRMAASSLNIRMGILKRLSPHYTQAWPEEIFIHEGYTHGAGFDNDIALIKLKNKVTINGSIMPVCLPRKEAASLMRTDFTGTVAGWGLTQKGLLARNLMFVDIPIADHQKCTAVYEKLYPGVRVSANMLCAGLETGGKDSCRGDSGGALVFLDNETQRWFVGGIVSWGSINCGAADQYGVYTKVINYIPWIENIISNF

[5] = target: dog MASP-2 (endogenous, in dog serum) (dog); test: cell-based or functional assay
Sequence of dog MASP-2 (endogenous, in dog serum) (dog) (chain, as listed by the source limits assumed): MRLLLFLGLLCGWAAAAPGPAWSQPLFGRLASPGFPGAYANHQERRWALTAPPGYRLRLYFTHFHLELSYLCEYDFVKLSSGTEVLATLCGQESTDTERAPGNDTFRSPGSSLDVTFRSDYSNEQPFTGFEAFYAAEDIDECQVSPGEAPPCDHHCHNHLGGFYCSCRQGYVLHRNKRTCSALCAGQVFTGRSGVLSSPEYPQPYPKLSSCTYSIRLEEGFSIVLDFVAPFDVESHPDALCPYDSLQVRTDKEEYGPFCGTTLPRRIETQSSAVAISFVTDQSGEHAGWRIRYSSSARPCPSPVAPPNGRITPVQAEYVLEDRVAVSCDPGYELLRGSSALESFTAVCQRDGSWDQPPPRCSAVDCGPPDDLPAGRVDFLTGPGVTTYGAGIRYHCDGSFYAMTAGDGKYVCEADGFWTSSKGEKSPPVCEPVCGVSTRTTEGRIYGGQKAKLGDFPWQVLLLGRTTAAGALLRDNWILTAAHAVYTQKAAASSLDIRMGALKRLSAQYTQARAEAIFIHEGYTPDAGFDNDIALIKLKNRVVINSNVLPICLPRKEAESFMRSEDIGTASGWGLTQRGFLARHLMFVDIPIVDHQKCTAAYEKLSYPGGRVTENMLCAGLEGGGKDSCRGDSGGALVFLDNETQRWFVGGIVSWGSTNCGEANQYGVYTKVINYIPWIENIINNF

[6] = target: rabbit MASP-2 (endogenous, in rabbit serum) (rabbit); test: cell-based or functional assay
[7] = target: T2, cynomolgus monkey MASP-2 (endogenous, …); test: cell-based or functional assay; remark: listed apart in the source
[8] = target: T3, mouse MASP-2 (endogenous, in mouse …); test: cell-based or functional assay; remark: listed apart in the source
[9] = target: T4, Catalytically active MASP-2 (human) (human, UniProt O00187 16-686, limits assumed); test: SPR, immobilized OMS858, fluid phase MASP-2
T4 construct: also called catalytically active form of human MASP-2
T4 sequence (O00187 16-686 limits assumed): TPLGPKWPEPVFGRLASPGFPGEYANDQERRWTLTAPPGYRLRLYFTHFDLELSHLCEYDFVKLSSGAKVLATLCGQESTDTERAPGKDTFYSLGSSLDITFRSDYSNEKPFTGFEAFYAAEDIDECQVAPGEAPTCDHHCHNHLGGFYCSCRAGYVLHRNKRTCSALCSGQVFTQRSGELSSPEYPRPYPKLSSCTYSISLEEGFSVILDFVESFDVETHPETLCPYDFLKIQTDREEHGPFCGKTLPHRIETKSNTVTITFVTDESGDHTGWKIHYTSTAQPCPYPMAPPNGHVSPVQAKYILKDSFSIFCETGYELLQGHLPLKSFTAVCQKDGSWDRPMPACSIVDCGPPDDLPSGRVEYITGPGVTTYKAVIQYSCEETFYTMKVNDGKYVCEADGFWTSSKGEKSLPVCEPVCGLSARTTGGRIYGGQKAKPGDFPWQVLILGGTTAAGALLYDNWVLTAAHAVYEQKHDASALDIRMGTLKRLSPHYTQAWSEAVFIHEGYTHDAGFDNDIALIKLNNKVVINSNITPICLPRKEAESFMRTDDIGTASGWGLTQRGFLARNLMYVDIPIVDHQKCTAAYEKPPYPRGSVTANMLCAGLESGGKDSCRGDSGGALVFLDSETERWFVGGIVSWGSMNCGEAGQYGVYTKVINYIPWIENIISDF

[10] = target: T5, Zymogen MASP-2 (human) (human, UniProt O00187 16-686, limits assumed); test: SPR, immobilized OMS858, fluid phase MASP-2
T5 construct: also called zymogen form of human MASP-2
T5 sequence (O00187 16-686 limits assumed): as above

[11] = target: T6, MASP-1 (human, UniProt P48740 20-699, limits assumed); test: solid phase ELISA, immobilized protease, apparent KD
T6 construct: Species read from 'Recombinant human MASP-2 or C1r, C1s, CFD, MASP-1 and MASP-3'
T6 sequence (looked up): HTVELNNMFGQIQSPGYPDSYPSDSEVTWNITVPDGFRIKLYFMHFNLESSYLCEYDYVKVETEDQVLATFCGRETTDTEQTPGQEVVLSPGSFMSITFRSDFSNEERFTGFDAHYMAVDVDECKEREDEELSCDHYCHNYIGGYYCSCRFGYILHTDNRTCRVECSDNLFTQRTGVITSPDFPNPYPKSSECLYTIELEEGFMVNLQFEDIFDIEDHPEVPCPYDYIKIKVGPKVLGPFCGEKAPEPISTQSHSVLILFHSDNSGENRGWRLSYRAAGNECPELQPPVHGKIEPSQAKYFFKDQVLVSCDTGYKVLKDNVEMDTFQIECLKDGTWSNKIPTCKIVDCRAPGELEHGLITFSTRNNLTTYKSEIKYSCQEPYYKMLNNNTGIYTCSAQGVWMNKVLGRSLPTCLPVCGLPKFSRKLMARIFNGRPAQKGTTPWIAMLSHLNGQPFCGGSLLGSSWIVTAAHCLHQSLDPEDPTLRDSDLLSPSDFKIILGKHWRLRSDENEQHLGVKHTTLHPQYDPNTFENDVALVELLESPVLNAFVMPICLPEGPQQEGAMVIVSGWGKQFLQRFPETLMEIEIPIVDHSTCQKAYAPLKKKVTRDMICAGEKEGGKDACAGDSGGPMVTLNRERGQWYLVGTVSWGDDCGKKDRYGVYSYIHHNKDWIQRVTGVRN
Source text: (§1) The apparent dissociation constant (KD) was estimated by nonlinear regression using a 4-parameter logistic model.

[12] = target: Recombinant human MASP-2 (specificity ELISA, Example 14) (human, UniProt O00187 16-686, limits assumed); test: solid phase ELISA, immobilized protease, apparent KD by 4-parameter logistic fit
Sequence of Recombinant human MASP-2 (specificity ELISA, Example 14) (O00187 16-686 limits assumed): as the sequence (O00187 16-686 limits assumed) above
Source text: as §1
Fold selectivity calculated as KD(related serine protease)/mean KD(MASP-2).

[13] = target: T7, human MASP-2 (CCP1-CCP2-SP fragment) (human, UniProt O00187 287-686, limits assumed); test: solid phase ELISA, plate coated with human MASP-2 (CCP1-CCP2-SP fragment), bound mAb detected with goat anti-human IgG-HRP, OD450
T7 construct: also called human MASP-2 (CCP1/2/SP fragment); hMASP-2-CCP1-CCP2-SP
T7 sequence (O00187 287-686 limits assumed): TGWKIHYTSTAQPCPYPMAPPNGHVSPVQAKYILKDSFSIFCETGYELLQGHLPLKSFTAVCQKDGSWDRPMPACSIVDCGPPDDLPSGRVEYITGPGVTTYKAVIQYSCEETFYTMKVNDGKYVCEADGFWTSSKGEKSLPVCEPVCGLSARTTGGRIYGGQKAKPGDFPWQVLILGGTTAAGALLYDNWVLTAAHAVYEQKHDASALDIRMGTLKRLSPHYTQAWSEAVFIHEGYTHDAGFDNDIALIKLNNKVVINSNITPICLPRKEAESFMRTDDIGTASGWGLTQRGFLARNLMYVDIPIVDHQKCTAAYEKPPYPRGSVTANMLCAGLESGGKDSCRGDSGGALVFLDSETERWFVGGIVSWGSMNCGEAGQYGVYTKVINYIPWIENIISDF
Experimental: To measure binding of the 26 purified recombinant MASP-2 antibodies to human MASP-2 (CCP1-CCP2-SP fragment), a solid phase ELISA assay was carried out as follows. A MaxiSorp ELISA plate was coated with human MASP-2 (CCP1/2/SP fragment) at 1.0 μg/mL in carbonate/bi-carbonate buffer overnight at 4° C. […] The plate was washed (PBS-T, 0.05%) and a detection antibody was added (goat anti-human IgG-HRP) for one hour at room temperature. After another wash (PBS-T, 0.05%) the plate was developed (5 minutes) with OPT EIA TMB (BD Biosciences #555214). Absorbance reading at A450 was measured using the Spectramax M5e plate reader.
A solid phase ELISA assay was carried out to measure binding of the three selected MASP-2 inhibitory antibodies to human MASP-2 (CCP1-CCP2-SP fragment), as described in Example 1.

T1 sequence (O00187 16-686 limits assumed): as the sequence (O00187 16-686 limits assumed) above

- C5b-9 deposition, lectin pathway-specific conditions (Wieslab), human serum, IC50 [1]: 0.81 nM
- MAC deposition under lectin pathway-specific conditions (Wieslab COMPL300), IC50 [1]: ~1 nM
- lectin-dependent C4 activation in 50% human serum, IC50, Experiment 1 [2]: 0.89 nM
- lectin-dependent C4 activation in 50% human serum, IC50, Experiment 2 [2]: 0.86 nM
- lectin-dependent C4 activation in 50% human serum, IC50, Experiment 3 [2]: 1.52 nM
- lectin-dependent C4 activation in 50% human serum, IC50, MEAN [2]: 1.09 nM
- lectin-dependent C4 activation in 50% cynomolgus monkey serum, IC50, Experiment 1 [3]: 42.8 nM
- lectin-dependent C4 activation in 50% cynomolgus monkey serum, IC50, Experiment 2 [3]: 44 nM
- lectin-dependent C4 activation in 50% cynomolgus monkey serum, IC50, Experiment 3 [3]: 45.5 nM
- lectin-dependent C4 activation in 50% cynomolgus monkey serum, IC50, MEAN [3]: 44.1 nM
- lectin-dependent C4 activation in 50% mouse hirudin plasma, IC50, Experiment 1 [4]: 9.59 nM
- lectin-dependent C4 activation in 50% mouse hirudin plasma, IC50, Experiment 2 [4]: 11.2 nM
- lectin-dependent C4 activation in 50% mouse hirudin plasma, IC50, Experiment 3 [4]: 14.8 nM
- lectin-dependent C4 activation in 50% mouse hirudin plasma, IC50, MEAN [4]: 11.9 nM
- lectin-dependent C4 activation in 50% dog serum, IC50, Experiment 1 [5]: > 500 nM
- lectin-dependent C4 activation in 50% dog serum, IC50, Experiment 2 [5]: > 500 nM
- lectin-dependent C4 activation in 50% dog serum, IC50, Experiment 3 [5]: > 500 nM
- lectin-dependent C4 activation in 50% rabbit serum, IC50, Experiment 1 [6]: > 500 nM
- lectin-dependent C4 activation in 50% rabbit serum, IC50, Experiment 2 [6]: > 500 nM
- lectin-dependent C4 activation in 50% rabbit serum, IC50, Experiment 3 [6]: > 500 nM
- Ratio (IC50-Query/IC50-Human), lectin-dependent C4 activation [7]: 40.5 fold
- Ratio (IC50-Query/IC50-Human), lectin-dependent C4 activation [8]: 10.9 fold
- Kd [9]: 0.287 nM
- koff [9]: 0.00971 s⁻¹
- kon [9]: 3.38e+07 M⁻¹ s⁻¹
- Kd [10]: 0.715 nM
- koff [10]: 0.000172 s⁻¹
- kon [10]: 241000 M⁻¹ s⁻¹
- Kd [11]: > 100 µg/mL
- Kd [12]: 0.042 µg/mL and 0.051 µg/mL
- EC50 (read off the curve) [13]: ~0.2 nM
B1: mAb OMS858 (humanized anti-MASP-2 antibody) (antibody, V domains shown)
VH: QVQLVQSGAEVKKPGASVKVSCKASGYTFTNHHMHWLRQAPGQGLEWIGDIDASDSETHYIEKFKDRATLTIDKSSSTAYMELSSLRSEDTAVYYCARGDITTTLRYFDVWGQGTLVTVSS
VL: DIQLTQSPSSLSASVGDRVTITCSASSSVRYMYWYQQKPGKAPKLLIYDTSNLASGVPSRFSGSGSGTDNTLTISSLQPEDFATYYCQQWSSYPLTFGQGTKVEIKR
notes: also called antibody OMS858; biotinylated OMS858
